# According to patent US20250074964A1 (Ambio, Inc., priority 2023, published 2025):
# Starred links: 1 amine or outer side, 2 acyl side, 3 side chain; linkers in the order of their positions; H or OH if unused. Non-standard residues stand in square brackets, D forms with d. Residues, ends and D or L forms follow the SMILES beside them. Groups on a side chain read outwards from the residue. No end group written: not given here. *: point of attachment. (CH2)18‑OH = polymethylene chain of 18 CH2 units ending in OH (m = 18), OCCCCCCCCCCCCCCCCCC*; C18 diacid = O=C(O)CCCCCCCCCCCCCCCCC(=O)*; γGlu = O=C(O)[C@H](CCC(=O)[*:2])N[*:1]; Dap = NC[C@H](N)C(=O)O; AEEA = NCCOCCOCC(=O)O; Aib = CC(C)(N)C(=O)O
# B1: APi3710 (peptide)
# peptide: HXEGTFTSDVSSXLEGQAAKEFIAWLVRGRG
# modifications: GLP-1 numbering (first residue is Xaa7): Aib-ψ[CH2NH] at Xaa8 (reduced peptide bond between Aib and the next residue); Aib at Xaa19; ε-amino group of Lys26 substituted with AEEA-AEEA-γ-Glu-(CH2)m-OH, m is 18
# B2: APi3711 (peptide)
# peptide: B1 peptide
# modifications: GLP-1 numbering (first residue is Xaa7): Aib at Xaa8 and Xaa19; ε-amino group of Lys26 substituted with AEEA-AEEA-γ-Glu-(CH2)m-OH, m is 18
# Columns and labels:
# [1] = biological target: human GLP-1R (constitutively expressed on recombinant HEK293 CRE-luciferase reporter cells) (human) (UniProt P43220); assay: cell-based or functional assay
# Chain of human GLP-1R (constitutively expressed on recombinant HEK293 CRE-luciferase reporter cells) (human) (P43220 24-463): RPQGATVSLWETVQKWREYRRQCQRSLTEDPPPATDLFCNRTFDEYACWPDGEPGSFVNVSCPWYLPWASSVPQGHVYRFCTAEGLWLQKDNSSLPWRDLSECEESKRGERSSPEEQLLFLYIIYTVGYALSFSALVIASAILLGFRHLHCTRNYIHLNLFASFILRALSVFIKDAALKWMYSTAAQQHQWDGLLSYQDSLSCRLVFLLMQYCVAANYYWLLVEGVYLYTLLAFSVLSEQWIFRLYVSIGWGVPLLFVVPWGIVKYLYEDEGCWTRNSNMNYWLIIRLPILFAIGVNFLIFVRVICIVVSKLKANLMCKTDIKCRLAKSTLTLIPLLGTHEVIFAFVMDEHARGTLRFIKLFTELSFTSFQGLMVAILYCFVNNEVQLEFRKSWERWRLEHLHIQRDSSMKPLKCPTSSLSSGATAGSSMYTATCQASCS
# [2] = biological target: T1, GLP-1R (Homo sapiens, UniProt P43220); assay: Cell-Based Tag-Lite GLP-1R Receptor Binding FRET Assay
# T1 construct: purchased
# T1 sequence (P43220 24-463): as above
# [3] = biological target: human GLP-1R (constitutively expressed on recombinant HEK293 CRE-luciferase reporter cells) (human, UniProt P43220 24-463); assay: cell-based or functional assay
# [4] = biological target: GLP-1R on Tag-Lite Glucagon GLP-1 labeled cells; assay: Tag-Lite GLP-1R binding FRET competition assay on cells, absence of HSA; competitor: red agonist
# Chain of GLP-1R on Tag-Lite Glucagon GLP-1 labeled cells (P43220 24-463): as above
# [5] = biological target: GLP-1R on Tag-Lite Glucagon GLP-1 labeled cells; assay: Tag-Lite GLP-1R binding FRET competition assay on cells, with 2% HSA; competitor: red agonist
molecule,measurement,setting,value
semaglutide (peptide),"biological IC50, CRE-luciferase reporter assay",[1],0.4 nM
liraglutide (peptide),"biological IC50, CRE-luciferase reporter assay",[1],0.03 nM
CC[C@H](C)[C@H](NC(=O)[C@H](Cc1ccccc1)NC(=O)[C@H](CCC(=O)O)NC(=O)[C@H](CCCCNC(=O)COCCOCCNC(=O)COCCOCCNC(=O)CC[C@H](NC(=O)CCCCCCCCCCCCCCCCC(=O)O)C(=O)O)NC(=O)[C@H](C)NC(=O)[C@H](C)NC(=O)[C@H](CCC(N)=O)NC(=O)CNC(=O)[C@H](CCC(=O)O)NC(=O)C(C)(C)NC(=O)[C@H](Cc1ccc(O)cc1)NC(=O)[C@H](CO)NC(=O)[C@H](CO)NC(=O)[C@@H](NC(=O)[C@H](CC(=O)O)NC(=O)[C@H](CO)NC(=O)[C@@H](NC(=O)[C@H](Cc1ccccc1)NC(=O)[C@@H](NC(=O)CNC(=O)[C@H](CCC(=O)O)NC(=O)C(C)(C)NC(=O)[C@@H](N)Cc1c[nH]cn1)[C@@H](C)O)[C@@H](C)O)C(C)C)C(=O)N[C@@H](C)C(=O)N[C@@H](Cc1c[nH]c2ccccc12)C(=O)N[C@@H](CC(C)C)C(=O)N[C@H](C(=O)NCC(=O)NCC(=O)N1CCC[C@H]1C(=O)N[C@@H](CO)C(=O)N[C@@H](CO)C(=O)NCC(=O)N[C@@H](C)C(=O)N1CCC[C@H]1C(=O)N1CCC[C@H]1C(=O)N1CCC[C@H]1C(=O)N[C@@H](CO)C(N)=O)C(C)C [APi3713] (H-H[Aib]EGTFTSDVSSY[Aib]EGQAAK([AEEA-AEEA-γGlu-C18 diacid])EFIAWLVGGPSSGAPPPS-NH2; N-terminus assumed),IC50,[2]; absence of HSA,1.59 µM
same,IC50,[2]; with 2% HSA,95.9 µM
H[Aib]EGTFTSDVSSY[Aib]EGQAAK([AEEA-AEEA-γGlu-(CH2)18‑OH])EFIAWLVGGPSSGAPPPS-NH2 [APi3713],"biological IC50, CRE-luciferase reporter assay",[3],~0.57 nM
same,IC50,[4],1.59 µM
same,IC50,[5],95.9 µM
Y[Aib]EGTFTSDVSS[Aib]LEGQAAK([AEEA-AEEA-γGlu-(CH2)18‑OH])EFIAWLVRGRG [APi3709],"biological IC50, CRE-luciferase reporter assay",[3],~5.4 nM
same,IC50,[4],2.48 µM
same,IC50,[5],129 µM
B1,IC50,[4],4.08 µM
same,IC50,[5],809 µM
B2,"biological IC50, CRE-luciferase reporter assay",[3],~0.66 nM
same,IC50,[4],0.898 µM
same,IC50,[5],77.8 µM
H[Aib]EGTFTSDVSS[Aib]LEGQAAK([AEEA-AEEA-γGlu-(CH2)18‑OH])EFIAWLVRG[Dap]G [APi3712],"biological IC50, CRE-luciferase reporter assay",[3],~0.66 nM
same,IC50,[4],1.7 µM
same,IC50,[5],179 µM
